Measurements taken from the supplement of paper PMC9876800.

Test system: peptide library, one residue held at a place counted from the S/T acceptor
Test: relative phosphorylation of the sub-library (ratio to the mean residue at this position); human; higher = residue favoured
How it was run: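 Purified recombinant kinases, either human or orthologue constructs, were incubated in 384-well plates with biotinylated degenerate peptide sub-libraries. Each sub-library fixed one residue at one position around a central Ser/Thr. Peptides at 50 μM and 50 μM ATP spiked with γ-32P-ATP were used for 90 min under kinase-specific conditions, and spots on streptavidin membranes were phosphorimaged and quantified by densitometry. Relative sub-library phosphorylation is expressed as a ratio to the mean residue at that position.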

Chain of GRK2, construct: Full length (P25098 whole entry, looked up): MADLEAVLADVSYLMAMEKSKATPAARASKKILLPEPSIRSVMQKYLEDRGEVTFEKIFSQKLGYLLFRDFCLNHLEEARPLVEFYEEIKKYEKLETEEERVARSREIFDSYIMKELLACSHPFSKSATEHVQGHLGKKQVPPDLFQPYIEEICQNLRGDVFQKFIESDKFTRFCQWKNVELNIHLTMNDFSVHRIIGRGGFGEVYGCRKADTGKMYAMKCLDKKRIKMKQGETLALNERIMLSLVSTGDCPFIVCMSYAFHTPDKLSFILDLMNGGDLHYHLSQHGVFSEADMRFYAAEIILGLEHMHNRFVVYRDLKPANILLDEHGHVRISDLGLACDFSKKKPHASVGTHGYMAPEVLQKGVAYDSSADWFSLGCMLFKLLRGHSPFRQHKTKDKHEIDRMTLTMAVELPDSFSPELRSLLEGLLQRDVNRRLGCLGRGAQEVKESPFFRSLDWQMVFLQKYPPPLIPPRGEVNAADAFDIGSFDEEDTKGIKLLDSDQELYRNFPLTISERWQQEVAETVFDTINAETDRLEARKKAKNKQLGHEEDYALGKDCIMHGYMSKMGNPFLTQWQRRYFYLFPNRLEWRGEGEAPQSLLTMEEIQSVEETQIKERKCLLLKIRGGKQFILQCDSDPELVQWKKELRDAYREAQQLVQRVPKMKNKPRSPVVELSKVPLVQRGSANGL
Chain of EIF2AK1, construct: Full length (Q9BQI3 whole entry, looked up): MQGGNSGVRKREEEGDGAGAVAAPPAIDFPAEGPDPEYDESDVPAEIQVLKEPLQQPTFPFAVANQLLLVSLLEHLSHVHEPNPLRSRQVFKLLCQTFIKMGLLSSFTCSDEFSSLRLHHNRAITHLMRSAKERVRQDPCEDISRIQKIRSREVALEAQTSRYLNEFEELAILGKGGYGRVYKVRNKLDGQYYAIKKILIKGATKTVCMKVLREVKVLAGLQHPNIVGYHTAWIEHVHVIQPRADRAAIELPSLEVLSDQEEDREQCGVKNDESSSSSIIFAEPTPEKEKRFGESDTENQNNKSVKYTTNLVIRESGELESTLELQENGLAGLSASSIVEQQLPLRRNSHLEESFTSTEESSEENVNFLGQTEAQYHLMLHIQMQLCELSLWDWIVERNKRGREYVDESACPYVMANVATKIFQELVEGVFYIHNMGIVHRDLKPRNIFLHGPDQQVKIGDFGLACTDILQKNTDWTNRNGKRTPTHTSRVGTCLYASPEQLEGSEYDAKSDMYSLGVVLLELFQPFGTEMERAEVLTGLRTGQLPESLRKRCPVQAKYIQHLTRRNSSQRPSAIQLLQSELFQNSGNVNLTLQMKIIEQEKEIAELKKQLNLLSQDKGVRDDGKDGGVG
Chain of GRK7, construct: Full length (Q8WTQ7 whole entry, looked up): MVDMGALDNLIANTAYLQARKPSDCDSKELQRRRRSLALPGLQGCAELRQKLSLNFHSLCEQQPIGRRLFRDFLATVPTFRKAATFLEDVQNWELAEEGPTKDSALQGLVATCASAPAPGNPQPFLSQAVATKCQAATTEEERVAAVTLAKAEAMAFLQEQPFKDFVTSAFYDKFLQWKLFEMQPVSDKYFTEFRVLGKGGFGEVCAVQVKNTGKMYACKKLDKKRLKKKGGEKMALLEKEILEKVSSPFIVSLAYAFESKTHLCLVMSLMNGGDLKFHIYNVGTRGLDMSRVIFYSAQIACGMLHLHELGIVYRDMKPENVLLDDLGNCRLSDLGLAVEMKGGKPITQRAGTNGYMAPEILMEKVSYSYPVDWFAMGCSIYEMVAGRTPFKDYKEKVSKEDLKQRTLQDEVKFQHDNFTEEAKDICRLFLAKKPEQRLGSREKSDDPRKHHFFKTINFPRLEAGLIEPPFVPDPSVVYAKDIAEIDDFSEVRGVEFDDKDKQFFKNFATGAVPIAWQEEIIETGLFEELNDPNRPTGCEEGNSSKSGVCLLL
Chain of GRK5, construct: Full length (P34947 whole entry, looked up): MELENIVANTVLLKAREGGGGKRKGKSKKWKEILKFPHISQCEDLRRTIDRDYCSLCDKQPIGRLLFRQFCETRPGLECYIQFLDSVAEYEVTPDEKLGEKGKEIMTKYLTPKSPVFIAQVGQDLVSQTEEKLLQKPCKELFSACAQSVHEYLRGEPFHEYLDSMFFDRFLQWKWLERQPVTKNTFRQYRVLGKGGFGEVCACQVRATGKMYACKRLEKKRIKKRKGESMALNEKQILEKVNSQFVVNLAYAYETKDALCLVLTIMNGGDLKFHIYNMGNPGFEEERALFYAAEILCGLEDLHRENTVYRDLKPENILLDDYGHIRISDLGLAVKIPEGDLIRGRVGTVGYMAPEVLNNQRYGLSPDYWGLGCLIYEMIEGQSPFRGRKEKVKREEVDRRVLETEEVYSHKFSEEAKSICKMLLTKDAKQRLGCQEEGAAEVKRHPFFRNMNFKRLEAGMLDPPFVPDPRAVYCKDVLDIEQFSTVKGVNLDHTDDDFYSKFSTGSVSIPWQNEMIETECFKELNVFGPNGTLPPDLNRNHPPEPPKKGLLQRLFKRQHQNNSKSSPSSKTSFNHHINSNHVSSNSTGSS

EIF2AK1, construct: Full length (from UniProt Q9BQI3)
relative phosphorylation
Conditions	at +1	at +2	at +3	at +4	at -1	at -2	at -3	at -4	at -5
A fixed	0.697	0.999	0.699	0.762	0.698	0.907	1.04	0.971	0.979
D fixed	0.365	0.489	0.403	0.602	1.26	3.35	1.11	0.87	0.672
E fixed	0.358	0.382	0.388	0.565	1.01	2.47	0.857	0.724	0.619
F fixed	1.5	0.874	1.3	0.975	1.09	0.752	0.955	1.15	1.31
G fixed	1.21	0.923	1.09	0.945	0.469	0.846	0.936	0.89	0.897
H fixed	0.788	1.24	1.12	1.01	1.56	1.1	1.04	1.03	0.962
I fixed	1.24	0.954	0.788	0.809	1.19	0.606	1.09	1.1	1.29
K fixed	0.975	1.74	1.59	1.49	0.796	0.648	0.864	0.998	1
L fixed	1.08	0.747	0.904	0.936	1.15	0.56	1.07	1.06	1.08
M fixed	1.77	0.895	0.938	0.893	1.16	0.726	1.29	1.07	1.04
N fixed	0.991	1.12	0.808	0.964	1.14	0.783	0.904	0.826	0.728
P fixed	0.293	0.692	0.917	0.893	0.374	0.581	0.695	0.73	0.79
Q fixed	1.02	0.889	0.77	0.923	0.761	0.809	0.842	0.751	0.696
R fixed	1.79	1.99	2.1	1.9	1.07	0.73	0.958	1.03	1.16
V fixed	0.705	0.903	0.733	0.612	1.07	0.58	0.731	0.93	1.06
W fixed	1.02	0.918	1.26	1.57	0.731	0.787	1.23	1.59	1.44
Y fixed	1.2	1.25	1.19	1.15	1.46	0.764	1.38	1.28	1.27
pThr fixed	0.374	0.484	0.489	0.601	0.504	0.816	0.761	0.647	0.631
pTyr fixed	0.536	0.481	0.569	0.607	2.17	0.943	0.981	0.732	0.792

GRK2, construct: Full length (from UniProt P25098)
relative phosphorylation
Conditions	at +1	at +2	at +3	at +4	at -1	at -2	at -3	at -4	at -5
A fixed	0.812	1.17	0.782	0.874	0.876	0.822	1.03	0.901	0.914
D fixed	1.1	0.929	1.42	1.35	1.14	1.38	1.9	1.41	1.34
E fixed	1.47	0.883	1.37	1.25	1.34	3.01	2.28	1.54	1.13
F fixed	1.27	1.18	1.13	1.02	1.02	0.961	0.768	0.915	1.14
G fixed	0.766	0.755	0.817	0.928	0.726	0.718	0.766	0.897	0.839
H fixed	0.977	1.09	1.02	1.07	1.06	0.813	0.831	0.969	0.931
I fixed	1.03	1.18	0.892	0.892	0.862	0.724	0.732	0.847	0.898
K fixed	0.79	0.747	0.778	0.84	0.919	0.741	0.815	0.965	0.912
L fixed	0.883	0.886	1.01	0.935	0.928	0.832	0.742	0.899	0.88
M fixed	1.08	0.965	0.981	0.975	0.971	0.872	0.8	0.951	0.931
N fixed	0.879	0.969	0.996	1.07	1.04	0.926	0.924	0.99	0.95
P fixed	0.791	0.627	0.765	0.926	1.24	0.931	0.864	0.975	0.896
Q fixed	1.12	0.872	0.939	0.994	0.978	0.928	0.889	0.944	0.91
R fixed	0.838	0.768	0.791	0.843	0.979	0.974	1.43	0.998	1.04
V fixed	1.15	1.37	0.855	0.854	0.911	0.701	0.665	0.813	0.918
W fixed	1.04	1.3	1.25	1.18	0.876	0.832	0.789	1.06	1.19
Y fixed	1.01	1.31	1.22	0.998	1.12	0.843	0.787	0.932	1.18
pThr fixed	7.25	1.18	1.22	1.95	1.18	3.63	3.44	2.09	1.27
pTyr fixed	2.37	1.57	1.47	1.62	2.11	14.3	3.56	2.58	1.57

GRK5, construct: Full length (from UniProt P34947)
relative phosphorylation
Conditions	at +1	at +2	at +3	at +4	at -1	at -2	at -3	at -4	at -5
A fixed	0.822	1.35	0.828	0.969	0.728	0.802	0.852	1.03	1.06
D fixed	0.996	1.03	1.73	1.58	1.08	0.951	1.27	1.28	1.27
E fixed	2.19	0.721	1.96	1.25	0.863	1.01	1.19	1.15	1.05
F fixed	0.966	0.879	1.06	0.823	0.867	1.67	0.85	0.912	0.967
G fixed	0.768	1.06	0.998	0.976	0.694	0.932	1.02	1.08	1.16
H fixed	0.895	0.953	1.05	0.964	1.7	0.88	1.17	0.932	1.03
I fixed	1.01	1.15	0.61	0.762	0.732	0.735	0.828	0.863	0.892
K fixed	0.804	0.947	0.767	1.04	0.909	0.871	0.788	0.831	0.861
L fixed	0.81	0.735	0.717	0.662	0.874	0.765	0.707	0.891	0.82
M fixed	1.04	0.841	0.724	0.723	0.829	0.738	0.792	0.887	0.817
N fixed	0.888	0.905	0.721	0.911	1.19	0.889	1.04	0.984	0.94
P fixed	0.564	0.73	0.997	1.48	0.986	0.838	0.977	1.19	1.02
Q fixed	1.21	0.74	0.808	1.01	0.872	0.737	0.867	0.85	0.789
R fixed	1.13	1.12	0.927	0.899	1.12	1.05	1.04	0.87	0.806
V fixed	1.06	1.51	0.705	0.867	1.07	0.751	1.5	0.955	1.06
W fixed	0.944	1.3	1.35	1.1	0.933	2.08	1.13	1.23	1.32
Y fixed	0.898	1.03	1.06	0.982	1.55	1.3	0.969	1.08	1.13
pThr fixed	2.07	0.82	1.27	2.47	0.587	1.43	2.65	1.75	1.36
pTyr fixed	2.19	0.868	1.08	1.37	0.964	2.77	2.56	2.29	1.88

GRK7, construct: Full length (from UniProt Q8WTQ7)
relative phosphorylation
Conditions	at +1	at +2	at +3	at +4	at -1	at -2	at -3	at -4	at -5
A fixed	0.839	1.23	0.77	1.09	0.809	0.805	0.636	0.878	0.87
D fixed	0.701	0.93	1.85	1.55	1.57	3.03	2.12	2.48	2.26
E fixed	2.1	0.894	4.35	1.69	1.31	2.43	1.75	1.9	2.03
F fixed	1.46	0.843	0.513	0.682	0.512	0.624	0.474	0.516	0.621
G fixed	0.823	1.15	0.924	1.1	1.7	1.13	1.24	1.04	1.34
H fixed	0.927	1.21	0.851	1.08	1.1	0.573	0.673	0.699	0.883
I fixed	0.765	1.11	0.372	0.799	0.495	0.533	0.499	0.553	0.729
K fixed	0.58	1.02	1.54	1.05	1.47	0.693	1.44	0.738	0.838
L fixed	0.907	0.921	0.581	0.818	0.621	0.548	0.534	0.54	0.589
M fixed	0.899	0.689	0.401	0.658	0.53	0.572	0.493	0.58	0.678
N fixed	0.704	1.15	0.604	0.726	1.66	0.956	1.16	0.872	0.96
P fixed	0.826	1.2	0.999	1.43	1.26	1.71	1.89	2.61	1.16
Q fixed	1.08	0.88	0.896	0.926	1.22	0.687	0.794	0.728	0.73
R fixed	0.56	1.02	0.848	0.792	0.891	0.762	1.58	0.798	0.955
V fixed	0.654	1.07	0.415	0.894	0.629	0.589	0.544	0.754	0.751
W fixed	1.93	0.822	0.572	0.758	0.513	0.614	0.554	0.702	0.858
Y fixed	1.25	0.868	0.515	0.975	0.717	0.737	0.623	0.61	0.753
pThr fixed	2.52	1.05	1.66	3.54	1.01	3.79	2.48	2.06	1.5
pTyr fixed	7.56	1.29	1.41	1.9	2.83	3.58	2.14	1.9	1.67
